Source: the DeepSol protein solubility set

assay: soluble on expression in E. coli; label from the status in PepcDB or PDB records

Sequence | soluble on expression in E. coli
MKLTGKQTWEFENPLFVNSSGTAVGPKEKEGPLGHLFDKSYDEMHCNQKNWEMAERKLMEDAVQSALSKQNLKKEDIDIFLAGDLLNQNVTANYVARHLKIPFLCLFGACSTSMESIAISSALIDGGFAKRALAATSSHNATAERQFRYPTEYGGQKPGTATSTVTGSGAVVLSQQPGGIKITSATVGRVIDLGITDSQDMGSAMAPAAADTIKQHLEDLGRTPDDYDLILTGDLSGVGSPILKDLLKEEGINVGTKHNDCGLMIYTPDQQVFAGGSGCACSAVVTFAHIFKEIEAGRLNRVLVVATGALLSPTIIQQKESIPCIAHGVVFERAERGNALEHHHHHH | soluble
MRSELCCCRAVKRAAPEESIEEDDSYEDSDLEEGGSSYDEGTVDSESSAEDQEDKDVPVSEKKKRKLPSDVTEGKTVFIRNLSFDSEEEALGEVLQQFGDLKYVRVVLHPDTEHSKGCAFAQFMTQEAAQKCLAAASLEAEGGGLKLDGRQLKVDLAVTRDEAAKLQTKKVKKPTGTRNLYLAREGLIRAGTKAAEGVSAADMAKRERFELLKHQELKNQNIFVSQTRLCLHNLPKAVDDKQLRKLLLEATRGEKGVRIKECRVMRDLKGVHGKMKGQSLGYAFAEFQKHEHALRALRHFNNNPEIFGSQKRPIVEFSLEDRRKLKVKELRIQRSLQKMESKPVTSKPQKEQKEVGKDKQQKAVQSATQDQSKAPGEQKGKAGSTSWTGFQTKAEVEQVELPDGKKRRKVLALPSHRGPKIRLRDKGKVKSLPSRKPKPQMGQRKQKKQQLASSVQAPKRKAKENKAEARFNQLVEQYKQKLLGPSKGAPLMKRSKWFDS | soluble
MFPRALAIGTPAQHKATEAPVTSTSASGLARFNTLEETAALAELHEACAATAWARHLLAARPFATAEDLYAASDAAMAELSAEDLAEAMAGHPPIGRPKPGDATSSREQAGMAGAAEELKAEMLELNLAYQDKFGHVFLICATGRTGEQMRDAALERIGNSPEQEREIVRTELGKINRIRLTRLVEQDARPAAALEHHHHHH | soluble
MGSDKIHHHHHHMFVCEVRFECFADTTISAAQHAINHLLEAWRANGQILGREFAVSFHDGEFKARLMLPAQDSLANRHNSPWAKAALKGLTDAKILPPREKLLGQDINANESATHTPEWQLLYTSYVHMCSPVRSGDNLLPIPLYKLPATFNGDHKQLIRWQTEWQACDELQMASATKAEFAALDELCNVGSDLFRRGWDLRGRIEYLTKIPTYYYLYRVGGSSLQDELARPCPRCGSTGWRLDEPLLDMFHFRCEPCRIVSNLSWDYQ | not soluble
ATFTSLANQAASREDYEFHRTVLLASGGLLLSGDPLPEITPFASKTLAKLMLRQRRSQESAKFTALSLSHAFLKLTDKNDLHCLFNYANHNATEFTLTADQPVDWYDYWTGEKLNQDPCQLLLVSVDRGLNAKAIVTA | not soluble
MAHHHHHHMGTLEAQTQGPGSMFITFEGIDGSGKTTQSHLLAEYLSEIYGVNNVVLTREPGGTLLNESVRNLLFKAQGLDSLSELLFFIAMRREHFVKIIKPSLMQKKIVICDRFIDSTIAYQGYGQGIDCSLIDQLNDLVIDVYPDITFIIDVDINESLSRSCKNGYEFADMEFYYRVRDGFYDIAKKNPHRCHVITDKSETYDIDDINFVHLEVIKVLQMV | soluble
GSKNCPDPELCRQSFRRFCYQEVSGPQEALSQLRQLCRQWLQPELHTKEQILELLVMEQFLTILPEEIQARVRHRCLMSSKEIVTLVEDFHRASKKPK | soluble
MANDIVPQDENGAGMPVEFDASTITGEEKAAILLLSLNEQDAAGIIRHLEPKQVQRVGSAMARAKDLSQEKVSAVHRTFLEDIQKYTNIGMGSEDFMRNALVAALGEDKANNLVDQILLGTGSKGLDSLKWM | not soluble
MAHHHHHHMNEKNKDINKYTSTNNMYKLSENNHKSLLENLKRRGIIDDDDVYNTMLQVDRGKYIKEIPYIDTPVYISHGVTISAPHMHALSLKRLINVLKPGSRAIDVGSGSGYLTVCMAIKMNVLENKNSYVIGLERVKDLVNFSLENIKRDKPELLKIDNFKIIHKNIYQVNEEEKKELGLFDAIHVGASASELPEILVDLLAENGKLIIPIEEDYTQVLYEITKKNGKIIKDRLFDVCFVSLKKN | not soluble
MNSIKNVPARVLSRRPGHSLEAEREQFDKTQAISISKAINTQEAPVKEKHARRIILGTHHEKGAFTFWSYAIGLPLPSSSILSWKFCHVLHKVLRDGHPNVLHDCQRYRSNIREIGDLWGHLHDRYGQLVNVYTKLLLTKISFHLKHPQFPAGLEVTDEVLEKAAGTDVNNIFQLTVEMFDYMDCELKLSESVFRQLNTAIAVSQMSSGQCRLAPLIQVIQDCSHLYHYTVKLLFKLHSCLPADTLQGHRDRFHEQFHSLRNFFRRASDMLYFKRLIQIPRLPEGPPNFLRASALAEHIKPVVVIPEEAPEDEEPENLIEISTGPPAGEPVVVADLFDQTFGPPNGSVKDDRDLQIESLKREVEMLRSELEKIKLEAQRYIAQLKSQVNALEGELEEQRKQKQKALVDNEQLRHELAQLRAAQLEGERSQGLREEAERKASATEARYNKLKEKHSELVHVHAELLRKNADTAKQLTVTQQSQEEVARVKEQLAFQVEQVKRESELKLEEKSDQLEKLKRELEAKAGELARAQEALSHTEQSKSELSSRLDTLSAEKDALSGAVRQREADLLAAQSLVRETEAALSREQQRSSQEQGELQGRLAERESQEQGLRQRLLDEQFAVLRGAAAEAAGILQDAVSKLDDPLHLRCTSSPDYLVSRAQEALDAVSTLEEGHAQYLTSLADASALVAALTRFSHLAADTIINGGATSHLAPTDPADRLIDTCRECGARALELMGQLQDQQALRHMQASLVRTPLQGILQLGQELKPKSLDVRQEELGAVVDKEMAATSAAIEDAVRRIEDMMNQARHASSGVKLEVNERILNSCTDLMKAIRLLVTTSTSLQKEIVESGRGAATQQEFYAKNSRWTEGLISASKAVGWGATQLVEAADKVVLHTGKYEELIVCSHEIAASTAQLVAASKVKANKHSPHLSRLQECSRTVNERAANVVASTKSGQEQIEDRDTMDFSGLSLIKLKKQEMETQVRVLELEKTLEAERMRLGELRKQHYVLAGASGSPGEEVAIRPSTAPRSVTTKKPPLAQKPSVAPRQDHQLDKKDGIYPAQLVNY | soluble
MVMFMVFRILGRMTKIEKEIKEEEAKYDLIIKNEAKIEPIVAEEDMEFKQGDIKPIRIKKIKIPPMSVLLICPYGRHRVGHVVAVGEEVPMPIDVEREVDMAMFACGFEGEVKKGDLIGMLLILAAEKRELEHHHHHH | not soluble
MPNKRNVELLATLKENLERAQGSFFLVNYQGLPAKETHALRQALKQNGARLFVAKNTLIRLALKELGLPELDGLQGPSAVVFYEDPVAAAKTLVQFAKSNPKGIPQVKSGLLQGQILTAKDVEALAELPTMDELRAELVGVLQAPMAELVGVLGGVARELVGILEAYAEKKAA | soluble
MGSDKIHHHHHHMDHEQIESQPWPQEGLERVERCPICGEVDRALLHDGLTDKIFFCAPGRWSLYQCPTCGAAYLDPRPTPATIAMAYSDYYTHEEGDDAPKGRFAHLKRRLRNDYLNARYNADLQPAWKVGRWITPLLGRKRKQIDESVRHLPATGKPGVLVDIGCGNGQFLGVAMQLGWEAWGVDLDPKAVKTAQKTGATVIQGGFPDTGLPSAHFDIVTLSHVIEHVHDPLAALREAFRVLKPGGHLWLATPNMGSFGHVRFGADWRGLEPPRHLVLFNNNSLEIALDGAGFIDIKQKPCLAQAAWFYQSSLRISRCQDPYDASASGLPLTLWIAAKLVDFRVAVSPFRCESIVVTAKRPESD | not soluble
MDIMLVLWNGTPPMTRPEIEKVINTKKKLASTTILSLLTRLESKNFVEVTKQGKLNLYTPLVSQSDYQAHESQSVLEKLYGNSLKKFVTSLYQGKKISSEEIHELSDFLKELEDGEE | not soluble
SVHKPSGQIMAVKRIRSTVDEKEQKQLLMDLDVVMRSSDCPYIVQFYGALFREGDCWICMELMSTSFDKFYKYVYSVLDDVIPEEILGKITLATVKALNHLKENLKIIHRDIKPSNILLDRSGNIKLCDFGISGQLVDSIAKTRDAGCRPYMAPERIDPSASRQGYDVRSDVWSLGITLYELATGRFPYPKWNSVFDQLTQVVKGDPPQLSNSEEREFSPSFINFVNLCLTKDESKRPKYKELLKHPFILMYEERTVEVACYVCKILDQMPATPSSPMYVD | soluble
MGVILLLLIIVFSFSKEAYYCIQVLSSRDLSSAERAYRKLADYPHARIEKIGDYYTVRVGLWENKSKAKEYLSQVKSVYPGAFLRTCYYIEDRIVSINKGNVKKKVESFNGKELVLHGKNEKELICKAVKKVFEDIVSFEGKLTKREITFKSYFPYSVADAVNYALILNKKEGFIPVRCRVYKRDKITYVLELEGFKNGKVKGIKAVDYASVTYRNKVLRLKLIF | not soluble
MGSDKIHHHHHHMAAGHGVRPARVAISLYPGCAQLYLQAQRAGKAVEALETPEAHFSVLESISLEEQMLILRSVLKRSQEQREKDFELMIQAYLSGNLDKVGALDSALGVDGLPAGLWEKIRVKLLDERNMRMAERIAAAASLQPVFVAVGAAHLPGEGGLIDLLSRAGLPYLPSIASDARRRLTFMPHLPLTHARYNSSYFRRMDGLTMADRINLRPLERNDLHFVHKLNNNDTIMRYWFEEPYEAYDELVALYDRHIHDQNERRFIIELDNGELAGLVELVEINYIHRRAEFQIIIAPDYQGRGLAKSATRIAVGYAFRVLNLHKVYLVVDKENQAAIHVYEACGFEVEGRLKEEFFSNGSYRDVLRMRLLQDDYLRHVGPAPVDASVLREWQDQ | not soluble
MAHHHHHHMNRKRPRSPAGVQYWLMKSEPNKFSIDDLKKCTRSPWDGVRNYAARNNMKLMKVGDCVLFYHSNAKPSGVVGLASVVKTAYPDHTALDPKSEYYDARASKKNPWEMVDVQFEEKFASIVSLEELKKEKKLQAMQLFSQSRLSVQPVEKSEYDHVVSLGRKK | soluble
MAHHHHHHMSAAAADYPLRRGGDVEDDVDDEERRRLTESSIKAFLEEEGVPVRSSVTVEDITSALVALANSVATASACLAVKVALLRLDCLTAVEGELRKDATRASSSKVRVTAEKSPSPRMTRASAFGWLRHLHQEGKGVCGVLRGGKAELGFVLASFVEEALLFAAMRSLMDRLGPLLPSENGRAGGAAALWWAGLSRTVAPTFVMSLLSWPLRAVRTTIRVNYMADTSLPVCEPSLQPAQQQGEQQQRRQHRYTSATEVWGCVLHRMGVRSLLLNGLDVDFASRALSLGLAWTVVKPASRWMQRWAMMSASTAGAASAPLALVRLGQHRLFALGVLLAVAGSVNALQRPFVVLRQRMALLPVADAESVCNGDDDQTKTPPTARRGCRYANGWDCAVQVWRQEGVSGLLAGLPLCLITSSVVPLLRTFAGYPTAPSFSGAVV | not soluble
MKTIAIRDVTGIMEPLPGFSVVRTDGSDGQRSIKLNGYKTTNNQYGYQFVKNENTVVYDDEEYIIKTHRERTYRKGVGVEATAIHRIFDDLRNNYIYDEKTGTLRLDAMLSFALEGSGYTFEIDTTDLPASVRVENFGWNNSLALFRDILEKFGAEFDYKGKKIYVAKKFGIQRDEPFLRYRFNVKDPEKEIDTSSFATYIRGYGKKDDKGNYLFAEYTSPLAKIYGIKHADPVKDERYTDKDSLLAAMKKQLNDNIDISLTFTAIELESMGLRDIKKGDYVWCVIEPFDLNVQLRAVSREDYSDETKSPTFTFGTITKKASDIIASFNTTKKAVDKVIDTSTGKIKDSAIDTTGLTTKSEFQSHVDNKIVHITAEERAAWNAASNSIGDLTFITWSTPTLKNGWIQYTANTESYPIQYGKDAIGTVNIRGAVSSGVVGSSTPVFTLPAGFRPPFPHLFIGVSSVATDGTPQYFRGIIKTNGDVCIENISNKDTPNQFIGIYTQFKAI | soluble
NNMHHLAVVGARDSTSYTQQSLEFLLSNDKSKYLTIVSGLAQGADAMAHQIALKYNLPTIAVLAFGHQTHYPKSTLALRNKIEEKGLVISEYPPHTPIAKYRFPERNRIISGLSKGVLITEAKEQSGSHITIDFALEQNRNVYVLPGSMFNPMTKGNLLRIQEGAKVVLNANDIFEDYYI | not soluble
